Results from article PMC10326918.

Target: Concanavalin A (Canavalia ensiformis)
Assay: native MS; static nESI under native-like conditions, 200 mM ammonium acetate pH 6.8, 5 uM monomer; tetramer [M + 21H]21+ ions (m/z 4901) selected with the quadrupole, then 193 nm UVPD or HCD, read by Orbitrap or orthogonal TOF/TPX3; tetramer dissociates to monomers and trimers

## Concanavalin A (natural protein)
  stoichiometry N: 4
